In publication PMC11482875:

Target: miniTRIM37 RBhcc (human | T. thermophilus) (UniProt O94972)
Assay: SEC-MALS

## miniTRIM37 RBhcc (from UniProt O94972 1-158; O94972 214-254)
  stoichiometry N: 2
